Test results published in patent US20150355179A1 (CENTRE NATIONAL DE LA RECHERCHE SCIENTIFIQUE CNRS, published 2015).

Target: monomeric CDK2 (GST-CDK2/CIV in the absence of cyclin A) (UniProt P24941 1-298)
Test: real-time fluorescence assay with Cy3-labelled sensor
Protocol: Fluorescence emission of Cy3 was measured at 590 nm following excitation at 544 nm on Polarstar™ fluorimeter.
Fluorescence kinase assays were performed in 96-well plates in a thermostated chamber (Polarstar BMG) at 30° C. in 200 ul phosphate buffer saline, pH 7.2, 150 mM NaCl, in the presence of 5 mM MgCl2, 0.5 mM ATP, except when stated otherwise. […] Changes in Cy3 fluorescence emission were recorded at 590 nm following excitation at 544 nm. […] Data analysis and curve fitting were performed using the GraFit Software (Erathicus Ltd).

binding result: no binding
B1: GST-CDKACTH1 labelled with Cy3 (CDKACTH1-Cy3) (other)
chain: GEVVDSHLSDMLQQLHSVNASKPSERGLVRQEEAEDPASIPIFWVSKWVDYSDKYGLGYQLSDNSVGVLFNDSTRLILYNDGDSLQYIERDGTESYLTVSSHPNSLMKKITLLKYFRNYMSEHLLKAGANITPREGDELARLPYLRTWFRTRSAIILHLSNGSVQINFFQDHTKLILSPLMAAVTYIDEKRDFRTYRLSLLEEYGSSKELASRLRYARTMVDKLLSSRSASNRLKASPGAGGTGGLPGGGGCSTPKKAKKL
modifications: Cy3-maleimide coupled to the unique cysteine of the substrate sequence (position -2 of the TP phosphorylation site)
notes: The GST tag was not removed; also called CDKACT-Cy3; CDKACT-H1 biosensor; not shown: N-terminal GST tag from the pGex6P1 vector, kept on the biosensor
